# Assays:
# Test in all cases: holdup assay
# Design in all cases: key: below the threshold = too weak to quantify, mostly under pKd 3.1 to 4
# [1] = target: Inadl_9, Q8NI35
# [2] = target: T1, NHERF3_1, Q5T2W1
# T1 sequence (Q5T2W1 4-100, limits assumed, looked up): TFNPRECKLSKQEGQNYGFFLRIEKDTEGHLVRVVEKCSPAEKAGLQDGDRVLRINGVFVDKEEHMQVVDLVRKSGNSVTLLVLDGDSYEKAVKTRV
# [3] = target: PICK1, Q9NRD5
# [4] = target: T2, NHERF3_3, Q5T2W1
# T2 sequence (Q5T2W1 238-333, limits assumed, looked up): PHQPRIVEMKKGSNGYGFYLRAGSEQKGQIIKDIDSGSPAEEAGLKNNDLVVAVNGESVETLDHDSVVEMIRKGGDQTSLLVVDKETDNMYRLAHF
# [5] = target: NOS1, P29475
# [6] = target: T3, DLG3_1, Q92796
# T3 sequence (Q92796 125-227, limits assumed, looked up): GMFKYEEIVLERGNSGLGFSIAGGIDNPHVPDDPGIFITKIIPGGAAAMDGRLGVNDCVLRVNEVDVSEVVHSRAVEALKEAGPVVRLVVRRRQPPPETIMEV
# [7] = target: SCRIB_3, Q14160
# [8] = target: AHNAK1, Q09666
# [9] = target: T4, APBA2_1, Q99767
# T4 sequence (Q99767 563-664, limits assumed, looked up): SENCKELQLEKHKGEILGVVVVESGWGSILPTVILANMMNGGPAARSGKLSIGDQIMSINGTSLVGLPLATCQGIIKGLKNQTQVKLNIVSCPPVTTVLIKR
# [10] = target: T5, LNX2_2, Q8N448
# T5 sequence (Q8N448 334-432, limits assumed, looked up): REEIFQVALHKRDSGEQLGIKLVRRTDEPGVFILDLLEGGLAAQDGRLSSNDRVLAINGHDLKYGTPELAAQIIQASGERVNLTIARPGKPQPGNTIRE
# [11] = target: Inadl_2, Q8NI35
# [12] = target: T6, TJP3_3, O95049
# T6 sequence (O95049 375-456, limits assumed, looked up): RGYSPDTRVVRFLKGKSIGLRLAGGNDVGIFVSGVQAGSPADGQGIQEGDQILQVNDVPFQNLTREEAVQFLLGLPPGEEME
# [13] = target: PDLIM1, O00151
# [14] = target: LDB3, O75112
# [15] = target: T7, DFNB31_3, Q9P202
# T7 sequence (Q9P202 811-907, limits assumed, looked up): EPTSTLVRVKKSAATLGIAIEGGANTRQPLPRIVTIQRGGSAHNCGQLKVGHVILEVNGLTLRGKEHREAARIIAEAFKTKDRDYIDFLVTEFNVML
# [16] = target: DLG1_3, Q12959
# [17] = target: LNX1_2, Q8TBB1
# [18] = target: T8, MPDZ_10, O75970
# T8 sequence (O75970 1624-1722, limits assumed, looked up): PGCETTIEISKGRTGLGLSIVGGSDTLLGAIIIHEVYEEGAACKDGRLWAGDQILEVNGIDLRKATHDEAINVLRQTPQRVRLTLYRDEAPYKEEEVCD
# [19] = target: T9, MPP6, Q9NZW5
# T9 sequence (Q9NZW5 125-219, limits assumed, looked up): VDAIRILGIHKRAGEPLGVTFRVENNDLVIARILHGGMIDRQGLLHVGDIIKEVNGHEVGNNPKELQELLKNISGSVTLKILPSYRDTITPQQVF
# [20] = target: T10, SNTA1, Q13424
# T10 sequence (Q13424 82-180, limits assumed, looked up): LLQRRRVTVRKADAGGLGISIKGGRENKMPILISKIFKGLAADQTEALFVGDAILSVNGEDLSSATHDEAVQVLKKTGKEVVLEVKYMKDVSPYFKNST
# [21] = target: DLG1_2, Q12959
# [22] = target: MAGI1_2, Q96QZ7
# [23] = target: GORASP1, Q9BQQ3
# [24] = target: T11, HTRA3, P83110
# T11 sequence (P83110 354-453, limits assumed, looked up): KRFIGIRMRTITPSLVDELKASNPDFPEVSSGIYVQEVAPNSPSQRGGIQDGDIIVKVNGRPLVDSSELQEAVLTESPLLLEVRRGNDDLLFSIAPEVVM
# [25] = target: NHERF4_1, Q86UT5-2
# [26] = target: T12, RAPGEF6, Q8TEU7
# T12 sequence (Q8TEU7 525-625, limits assumed, looked up): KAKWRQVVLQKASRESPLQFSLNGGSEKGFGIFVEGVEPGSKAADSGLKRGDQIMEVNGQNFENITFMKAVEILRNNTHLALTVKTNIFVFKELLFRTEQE
# [27] = modified: phospho on T at position -2 from the C-terminal residue
# [28] = plain residues with an end cap or a label only (N-terminal biotin on a linker: ado-ado)
# Sequence of MAGI1_2, Q96QZ7 (Q96QZ7 456-580): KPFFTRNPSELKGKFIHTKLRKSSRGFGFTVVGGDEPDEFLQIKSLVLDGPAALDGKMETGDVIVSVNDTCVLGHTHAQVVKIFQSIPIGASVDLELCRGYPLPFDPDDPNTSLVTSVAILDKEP
# Sequence of GORASP1, Q9BQQ3 (Q9BQQ3 1-208): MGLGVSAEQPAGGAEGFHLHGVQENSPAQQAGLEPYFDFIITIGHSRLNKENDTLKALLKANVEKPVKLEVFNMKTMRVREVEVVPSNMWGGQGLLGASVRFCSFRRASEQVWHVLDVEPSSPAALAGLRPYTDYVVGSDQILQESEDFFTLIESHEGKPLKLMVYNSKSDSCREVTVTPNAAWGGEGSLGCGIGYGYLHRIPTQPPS
# Sequence of DLG1_2, Q12959 (Q12959 314-412): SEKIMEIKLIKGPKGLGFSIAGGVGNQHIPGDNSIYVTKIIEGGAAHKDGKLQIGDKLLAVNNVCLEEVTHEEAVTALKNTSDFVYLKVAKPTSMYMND
# Sequence of PICK1, Q9NRD5 (Q9NRD5 17-115): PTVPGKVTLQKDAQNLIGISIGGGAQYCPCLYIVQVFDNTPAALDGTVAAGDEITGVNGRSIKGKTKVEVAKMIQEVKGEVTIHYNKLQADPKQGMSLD
# Sequence of DLG1_3, Q12959 (Q12959 457-571): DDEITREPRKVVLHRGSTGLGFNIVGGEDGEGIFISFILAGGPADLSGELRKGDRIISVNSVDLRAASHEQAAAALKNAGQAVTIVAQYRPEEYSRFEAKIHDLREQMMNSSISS
# Sequence of NHERF4_1, Q86UT5-2 (Q86UT5 other isoform, or with tags, fused parts or gaps): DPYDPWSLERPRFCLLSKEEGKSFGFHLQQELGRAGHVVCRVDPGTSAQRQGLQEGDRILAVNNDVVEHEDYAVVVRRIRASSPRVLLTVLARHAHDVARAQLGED
# Sequence of Inadl_2, Q8NI35 (Q8NI35 238-335): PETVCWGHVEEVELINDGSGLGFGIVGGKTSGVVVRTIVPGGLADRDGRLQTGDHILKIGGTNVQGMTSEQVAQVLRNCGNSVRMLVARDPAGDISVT
# Sequence of AHNAK1, Q09666 (Q09666 4-100): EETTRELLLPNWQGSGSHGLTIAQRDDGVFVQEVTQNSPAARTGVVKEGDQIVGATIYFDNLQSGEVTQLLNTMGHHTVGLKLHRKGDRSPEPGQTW
# Sequence of LNX1_2, Q8TBB1 (Q8TBB1 371-470): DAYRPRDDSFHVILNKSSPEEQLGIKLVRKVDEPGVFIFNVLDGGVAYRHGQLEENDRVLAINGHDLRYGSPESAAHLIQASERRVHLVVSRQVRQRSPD
# Sequence of NOS1, P29475 (P29475 9-101): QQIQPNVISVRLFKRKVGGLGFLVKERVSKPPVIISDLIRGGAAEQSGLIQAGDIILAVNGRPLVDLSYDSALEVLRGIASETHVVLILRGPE
# Sequence of LDB3, O75112 (O75112 1-94): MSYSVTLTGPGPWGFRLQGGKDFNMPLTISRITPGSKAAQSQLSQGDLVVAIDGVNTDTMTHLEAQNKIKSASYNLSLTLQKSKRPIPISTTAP
# Sequence of PDLIM1, O00151 (O00151 1-87): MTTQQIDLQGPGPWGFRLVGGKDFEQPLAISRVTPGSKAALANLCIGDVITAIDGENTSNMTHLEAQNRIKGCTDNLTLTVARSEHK
# Sequence of SCRIB_3, Q14160 (Q14160 999-1103): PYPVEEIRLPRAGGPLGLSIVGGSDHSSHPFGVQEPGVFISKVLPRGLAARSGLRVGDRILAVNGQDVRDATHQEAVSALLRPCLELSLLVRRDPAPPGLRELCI
# Sequence of Inadl_9, Q8NI35 (Q8NI35 1530-1615): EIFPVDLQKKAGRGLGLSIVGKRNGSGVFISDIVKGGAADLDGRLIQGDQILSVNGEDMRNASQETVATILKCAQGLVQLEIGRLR
binder,measurement,setting,value
"SSRTRRETQL [HPV16-E6_-2P, P03126]",pKd,[1]; [27],below the threshold
same,pKd,[2]; [27],3.79
same,pKd,[3]; [27],below the threshold
same,pKd,[4]; [27],below the threshold
same,pKd,[5]; [27],3.63
same,pKd,[6]; [27],below the threshold
same,pKd,[7]; [27],below the threshold
same,pKd,[8]; [27],below the threshold
same,pKd,[9]; [27],below the threshold
same,pKd,[10]; [27],below the threshold
same,pKd,[11]; [27],below the threshold
same,pKd,[12]; [27],below the threshold
same,pKd,[13]; [27],below the threshold
same,pKd,[14]; [27],below the threshold
same,pKd,[15]; [27],3.89
same,pKd,[16]; [27],below the threshold
same,pKd,[17]; [27],below the threshold
same,pKd,[18]; [27],below the threshold
same,pKd,[19]; [27],below the threshold
same,pKd,[20]; [27],below the threshold
same,pKd,[21]; [27],below the threshold
same,pKd,[22]; [27],below the threshold
same,pKd,[23]; [27],below the threshold
same,pKd,[24]; [27],below the threshold
same,pKd,[25]; [27],4.37
same,pKd,[26]; [27],below the threshold
"RQKEVRESKC [SCN8A, Q9UQD0]",pKd,[1]; [28],below the threshold
same,pKd,[2]; [28],4.71
same,pKd,[3]; [28],4.18
same,pKd,[4]; [28],below the threshold
same,pKd,[5]; [28],below the threshold
same,pKd,[6]; [28],below the threshold
same,pKd,[7]; [28],4.16
same,pKd,[8]; [28],below the threshold
same,pKd,[9]; [28],below the threshold
same,pKd,[10]; [28],below the threshold
same,pKd,[11]; [28],below the threshold
same,pKd,[12]; [28],below the threshold
same,pKd,[13]; [28],below the threshold
same,pKd,[14]; [28],below the threshold
same,pKd,[15]; [28],3.95
same,pKd,[16]; [28],4.13
same,pKd,[17]; [28],below the threshold
same,pKd,[18]; [28],3.8
same,pKd,[19]; [28],below the threshold
same,pKd,[20]; [28],4.65
same,pKd,[21]; [28],3.55
same,pKd,[22]; [28],3.67
same,pKd,[23]; [28],below the threshold
same,pKd,[24]; [28],3.5
same,pKd,[25]; [28],3.91
same,pKd,[26]; [28],below the threshold
"AQRARSPSDV [GPR12, P47775]",pKd,[1]; [28],below the threshold
same,pKd,[2]; [28],below the threshold
same,pKd,[3]; [28],3.99
same,pKd,[4]; [28],below the threshold
same,pKd,[5]; [28],3.75
same,pKd,[6]; [28],below the threshold
same,pKd,[7]; [28],below the threshold
same,pKd,[8]; [28],below the threshold
same,pKd,[9]; [28],below the threshold
same,pKd,[10]; [28],3.57
same,pKd,[11]; [28],below the threshold
same,pKd,[12]; [28],below the threshold
same,pKd,[13]; [28],below the threshold
same,pKd,[14]; [28],below the threshold
same,pKd,[15]; [28],3.59
same,pKd,[16]; [28],below the threshold
same,pKd,[17]; [28],below the threshold
same,pKd,[18]; [28],4.09
same,pKd,[19]; [28],below the threshold
same,pKd,[20]; [28],below the threshold
same,pKd,[21]; [28],3.75
same,pKd,[22]; [28],below the threshold
same,pKd,[23]; [28],below the threshold
same,pKd,[24]; [28],below the threshold
same,pKd,[25]; [28],below the threshold
same,pKd,[26]; [28],below the threshold
"EDGESWEYQI [TRPV6, Q9H1D0]",pKd,[1]; [28],3.83
same,pKd,[2]; [28],below the threshold
same,pKd,[3]; [28],below the threshold
same,pKd,[4]; [28],below the threshold
same,pKd,[5]; [28],below the threshold
same,pKd,[6]; [28],below the threshold
same,pKd,[7]; [28],4.11
same,pKd,[8]; [28],below the threshold
same,pKd,[9]; [28],below the threshold
same,pKd,[10]; [28],below the threshold
same,pKd,[11]; [28],3.97
same,pKd,[12]; [28],below the threshold
same,pKd,[13]; [28],below the threshold
same,pKd,[14]; [28],below the threshold
same,pKd,[15]; [28],3.6
same,pKd,[16]; [28],below the threshold
same,pKd,[17]; [28],below the threshold
same,pKd,[18]; [28],below the threshold
same,pKd,[19]; [28],3.81
same,pKd,[20]; [28],below the threshold
same,pKd,[21]; [28],below the threshold
same,pKd,[22]; [28],below the threshold
same,pKd,[23]; [28],4.63
same,pKd,[24]; [28],below the threshold
same,pKd,[25]; [28],below the threshold
same,pKd,[26]; [28],below the threshold
"MQHQRTHTRV [ZSCAN30, Q86W11]",pKd,[1]; [28],3.62
same,pKd,[2]; [28],4
same,pKd,[3]; [28],below the threshold
same,pKd,[4]; [28],3.64
same,pKd,[5]; [28],3.91
same,pKd,[6]; [28],4.03
same,pKd,[7]; [28],3.51
same,pKd,[8]; [28],below the threshold
same,pKd,[9]; [28],below the threshold
same,pKd,[10]; [28],4.47
same,pKd,[11]; [28],below the threshold
same,pKd,[12]; [28],below the threshold
same,pKd,[13]; [28],below the threshold
same,pKd,[14]; [28],below the threshold
same,pKd,[15]; [28],below the threshold
same,pKd,[16]; [28],3.81
same,pKd,[17]; [28],3.58
same,pKd,[18]; [28],3.7
same,pKd,[19]; [28],below the threshold
same,pKd,[20]; [28],4.23
same,pKd,[21]; [28],5.12
same,pKd,[22]; [28],4.87
same,pKd,[23]; [28],4.1
same,pKd,[24]; [28],below the threshold
same,pKd,[25]; [28],below the threshold
same,pKd,[26]; [28],below the threshold
